This data set can be described thus: soluble on expression in E. coli; label from the status in PepcDB or PDB records.
Consider “MTKHPPNRRGISFEVGAQLEARDRLKNWYPAHIEDIDYEEGKVLIHFKRWNHRYDEWFCWDSPYLRPLEKIQLRKEGLHEEDGSSEFQINEQVLACWSDCRFYPAKVTAVNKDGTYTVKFYDGVVQTVKHIHVKAFSKDQNIVGNARPKETDHKSLSSSPDKREKFKEQRKATVNVKKDKEDKPLKTEKRPKQPDKEGKLICSEKGKVSEKSLPKNEKEDKENISENDREYSGDAQKKTSQTPFHSSYCCGFKLSNFATQLEHHHHHH”, for which the “soluble on expression in E. coli” value is “soluble”.
Turning to “MSLSNERSSEKTLQNLKTQLLEDSSFLSKLREKITPHIDDHDIQKIIRDYLLTNPEIIIEMQLILQDKLEKQSAQNTQKQASIINSLKKQIFQSPYDAVLGNPNGKRVLVDFFDYNCGYCKISYPYIENLIKEYPDLRVIIKDLPILGSDSMAAHIVAYAFRKQFPEKYPQFYKELLTHQSRANEIKAIKIAVSLGADEKKLRNAIKDSSLQNAFKKNIQIASRLNITGTPSYIIGDKLLIGAVSEEILKEAIENMQEGHHHHHH”, the “soluble on expression in E. coli” value is on record as “soluble”.
Then “MSLGQTTLACSFRSLTNPYYTAFNKGAQSFAKSVGLPYVPLTTEGSSEKGIADIRALLQKTGGNLVLNVDPNDSADARVIVEACSKAGAYVTTIWNKPKDLHPWDYNPNYVAHLSYDGVAYGEETATQLFKSMGGKGGVVALGGIFSNVPAIERKAGLDAALKKFPGIQLLDFQVADWNSQKAFPIMQAWMTRFNSKIKGVWAANDDMALGAIEALRAEGLAGQIPVTGMDGTQPGLVAIKSGELVASVDWDPFWLGGIGLSMGLQAKEKKIDLATLPKDRRESFCTATFVTKTNVQDVIARAASPKAEWNNLYARVAGPVVYREGHHHHHH”, with “soluble”; and “SNALSASEERFQLAVSGASAGLWDWNPKTGAMYLSPHFKKIMGYEDHELPDEITGHRESIHPDDRARVLAALKAHLEHRDTYDVEYRVRTRSGDFRWIQSRGQALWNSAGEPYRMVGWIMDVTDRKRDEDALRVSREELRRL”, with “soluble”; and “GSPALDTGTTEEDRLKIDVIDWLVFDPAQRAEALKQGNAIMRKFLASKKHEAAKEVFVKIPQDSIAEIYNQCEEQGMESPLPAEDDNAIREHLCIRAYLEAHETFNEWFKHMNSVPGGSGGSWKGHLDALTADVKEKMYNVLLFVDGGWMVDVREDAKEDHERTHQMVLLRKLCLPMLCFLLHTILHSTGQYQECLQLADMVSSERHKLYLVFSKEELRKLLQKLRESSLMLLDQGLDPLGYEIQL”, with “soluble”.
Then “MNNYLKNLKEVFARIFRPNNRKSTRTYLQRSISYWRRNSIYLDNIYNKISTDTAQLRFKHVKITRNPGGVDSMVWYEHSDLAEVLTVSPNPLEVPVVFWSNVTRAMLRDGVAVVVPRWKNGRLVEIWLAKKTVTWTAESVELMLDDVAVELPLTDVWVFENPKLNVTAQLNQITELIDINLNALTEKLSDGNSSLRGFLKLPTKAADEHLKQQARDRVDSMLDLAKNGGIAYLEQGEEFQELSKDYSTASKEELEFLKSQLYNAHGINEKLFTCDYTEEQYRAYYSSVMKLYQRVYSEEINRKYFTKTARTQGNKLLVFFDMADMISFKDLVEGGFKSKYAGLMNSNEFRETYLGLPGYEGGEVFETNLNAVRIGAEESE”, with “not soluble”; and “MLPFANYYISSPSVSEKNAINNNVNKRRKKKRAMMVYGGGGGGDDLAVVKAAAWAWYLRKEGKPIMREFDVTRAQRIPRPSRYKIEATKNMILSENRVLAENRVSSTKSPLWYTNYQFRGDQETYYSRLLDTYETKNISKRLNIDDSSFSTSLSSVLKHNGDDHHNHNRNDDYGFDDHGLLKKRNGSDSNTTTRSKTNNDKSYNGGFMKKVSKRSLWKGMIVMGPGSTVCGRSDDVASQAGRRTVKVAVAAEALVRSAASGSGKTQSGHC”, with “not soluble”; and “RTNRTGMATAIPDSLHKIFYTAAGRRVEDAGGILPDIEVKQDTAATLLYYMAINNDVFDFVTGYVLKHKTIAKPEDFSITNEDYAAFCKMMEEKKFDYDRQSGKMLDKLEELAKIEGYLPEANSELKALREKLKPNLSRDLLRFKKEITNYLNNEIVTRYYYERGSIRQSLPEDKVVKEAIKLLKDHPEQIRQILAAPKAENKG”, with “not soluble”.
Regarding “MGSDKIHHHHHHMASKEEQYAAFYQFLETLDCYLTTTNALENEVAQFKENPHREIAGFMLASSETIDVPKGFIRMLYCLEQDGYAYLDQQRCSFSAGQVMIVNEATSVSYQGQGMSMIIFYFKKHYFLDTLLNQLAEEPVMYRFFTEIASSEFENIPRYFVFASQPNSDVHVYSLLLLKQIVKMAYFNNKVTKAAFVLLVVELGQLPREALKMQDNYLSNHQRVEVILAYIEQQIAHVTLAEVAAKFHFHPNYLSNFLKEKTNKTFTEIVLAYRIQLAKNYLKQTDLSIQTIVERIGYQDKAFFYKRFKEEMGMTPKQYRQKEGMADVRRSL”, the “soluble on expression in E. coli” value was “not soluble”.
Regarding “SATALSEEELDNEDYYSLLNVRREASSEELKAAYRRLCMLYHPDKHRDPELKSQAERLFNLVHQAYEVLSDPQTRAIYDIYGKRGLEMEGWEVVERRRTPAEIREEFERLQREREERRLQQRTNPKGTISVGVDATDLFDRYDEEYEDVSGSSFPQIEINKMHISQSIEAPLTATDTAILSGSLSTQNGNGGGSINFALRRVTSAKGWGELEFGAGDLQGPLFGLKLFRNLTPRCFVTTNCALQFSSRGIRPGLTTVLARNLDKNTVGYLQWRWGIQSAMNTSIVRDTKTSHFTVALQLGIPHSFALISYQHKFQDDDQTRVKGSLKAGFFGTVVEYGAERKISRHSVLGAAVSVGVPQGVSLKVKELEKQRESAATDVLQKKQEAESAVRLMQESVRRIIEAEESRMGLIIVNAWYGKFVNDKSRKSEKVKVIDVTVPLQCLVKDSKLILTEASKAGLPGFYDPCVGEEKNLKVLYQFRGVLHQVMVLDSEALRIPKQSHRIDTDG”, the “soluble on expression in E. coli” value is reported as “soluble”.
The value for “MQHIYVPYHVRDHPMSSVCERFERELRRGAIQLEVICLLENERYGYEIVKKLKESGFRVEEGTLYPLLRRLEGEGILSSRWSTDDTRPRKYYTVTDYGKRVRKKWLELFRSINRSLEDLTEVDQ” was “not soluble”; that for “MGSDKIHHHHHHMIRINVVGFKGGSGKSTISYHLARQLSEYYNVVLVDKTYSGTISRIYNINNNIFSFLKGRNELFYINKNNLSVINMSFLNEDDLNGIDFNAFKYLYSKLTKDSDIVIVDHSSIPHDFATEIELKAFMENFRNFAYNTVLVLSGDEIPIKKYLNYTVLLNDFVKNYAEKILGISLPTDVKFLKIVAVIINKILKGQESKLEEFIRGDEILQRSARFIIPYYLSLTQRHFKDIDPPKEISDITRYILDFLREPTSIL” was “not soluble”.
On to “MSLRGIRMKDYDLIVIGTGSGMNYVNSIIDSNPKMKIAVIDKDEPGGICLTRGCIPSKLLLYPAELVRDLETAPLFGIKLEIKDIEFRTIMERMRKRIGEDIEMIRQGLTENDYLDYYPETAEFISPYTLKAGDEILHSEMIFLCTGSKPAVPPVRGLEEAGYLTSDTVLGLNECPKSLAILGGSYIGAEYGHFFSAMGAEVTVIGRNQHFLPQEEPEVSELARIKMSEYMRILTNHEAIEVRKEKGGQKTVIAKDRDSGEETEVTADEILVATGRAPNNDILHPEKAGIKTDPHGWILVNEYLETSQPNIWAFGDANGKYLLKHVGNYESGIVYLNAIMQEKVKVDYHAVPHAVFSYPEIAGVGMSEKEAIEEFGEKRVIIGFKLFEDTAKGSAMETRDYFVKVILDGLEDKILGAHIIGPHASVLIHQIIPLMYTASRSAKPMMQMMDIHPALSEVVKRAFYSRLSPEHYHHVMKHLGLEDEDSVEGHHHHHH”, for which the “soluble on expression in E. coli” value was “soluble”.
The value for “MGSDKIHHHHHHLFAIRDEHLALDIVQDSMMKLVEKYSAKPLEELPLLFQRILQNTIRDFYRRQKTRSLWTTLFSAFIPSDHEKESEDFDLLETLQSDPSSSKVNDPHQQLEQSQLINLLERAIETLPARQREAFLLRYWEEMDVMETAKIMGCSEGSVKTHCSRATHTLAAMLKKHGIGL” was “not soluble”.
The value for “GSMTEIALIGNPNSGKTSLFNLITGHNQRVGNWPGVTVERKSGLVKKNKDLEIQDLPGIYSMSPYSPEEKVARDYLLSQRADSILNVVDATNLERNLYLTTQLIETGIPVTIALNMIDVLDGQGKKINVDKLSYHLGVPVVATSALKQTGVDQVVKKAAHTTTSTVGDLAFPIYDDRLEAAISQILEVLGNSVPQRSARFYAIKLFEQDSLVEAELDLSQFQRKEIEDIIRITEEIFTEDAESIVINERYAFIERVCQMAESHTEDFALTLS” was “soluble”; that for “MGSDKIHHHHHHMKNIHSIEFYTGSKEELLPDFEKDFPYIASRAELDKYIGGYVPWHWHRTVELFYMESGSIEYDTPGGKILFPAGSGGMINPNVLHMTKAISQREKNIQLLHIFDVSLLAGEQGSRIEQKYIAPVITAPQIEVIPLFPGNAEEERILKLLAASFRLSSDEFGYEIKLREALTEIWLMLFELSCSMREKKGEHNKSNDKIKLMMIYIHEHYREKISILELAAAAYLSERECYRVFHDCLHMTPVEYITTYRLQIACQMLAKGQEPITVISHECGLGSSSYFGKVFREYAYCSPTEYRKKWQNSDM” was “not soluble”.
On to “MSLQENRLKYCIQRMATVFEVSLSGYYDWLKRGMSKRKQHHNRCELLVKSAHMDTQQSYGHERLHQHLTSQGHDISLYMVRQIKQEHGIYCKRHKRSKVTTDSNHNKPVYPNLLEQQFDVAAPNIAWVSDITYIWTNEGWVYLAAFKDLYSKEIVGYALNKRMTADLVCEALNNAIKYKRPARGLIVHSDRGSQYCSHQYRQIIDKYGFAGSMSRKGNCYDNAPIESFWGQLKNELIYHKVYETRDEAIKDVVRYIEIFYNRQRIQKGLGFKSPTQVFQDFYRQAAEGHHHHHH”, for which the “soluble on expression in E. coli” value is listed as “not soluble”.
Consider “MGSDKIHHHHHHMIRFRNFWLPIWNRKMSMKNLYENDLLYRTTGPALRPGGFELTDWAVEHCRFQAGDRILDVGCGRGATVNRLRSHYHLEAYGIDPSATLLTLGQETYPDLPLSKGRGEDIPFTNSCFDGVFVECSLSLMTDPDQALSEIRRVLKVKGKLIIHDVYARNPQGTPDLRELNIGTCIRNALVKEDLEHGLESKGLRTIHWQDHSPLLNRLMMELIMTHGSMSAFWLKSTDCSADPNRVQAALKKAKVGYFQLIAEKEAEKEAEHCPVR”, for which the “soluble on expression in E. coli” value is “not soluble”.
Regarding “MDRENILKAVKEARSLAKPRNFTQSLDLIINLKELDLSRPENRLKEQVVLPNGRGKEPKIAVIAKGDLAAQAEEMGLTVIRQDELEELGKNKKMAKKIANEHDFFIAQADMMPLVGKTLGPVLGPRGKMPQPVPANANLTPLVERLKKTVLINTRDKPLFHVLVGNEKMSDEELAENIEAILNTVSRKYEKGLYHVKSAYTKLTMGPPAQIEK”, the “soluble on expression in E. coli” value was “soluble”.
The value for “MGSDKIHHHHHHAQSLKDLLNKDNISKVVNAITGTPETIDMTGTWTYSGSAVEFESDNLLMKAGGAAAATMAENKLNEQLSKVGIKEGQMSFTFNADSTFTSTVGKKKLSGTYSYNASTKQVDLKYLKLLNLHAKVNCTSNSMDLLFNSDKLLKLMTFLGSKTNSTALKTVSSLAENYDGMMLGFGLKK” was “not soluble”; that for “MPEEESIDIKFRLYDGSDIGPFRYSAASTVDFLKQRVVSDWPKGKTVVPKGINEVKLISSGKILENNKTVGQCKTPFGDIAGGVIVMHVVVQPSLAKSKTEKKVDKAPKAVICTCTIL” was “soluble”.

The values are drawn from the DeepSol protein solubility set.
